Measured values as given in the supplement of paper PMC9170038.

Test system: MS2 coat protein
Assay: apparent KD of MS2 coat protein; designed switch direction (-1 OFF switch, 1 ON switch): -1; higher = weaker reporter binding
Procedure, shortened: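 On Illumina chips, designed RNA switches with common flanks were made by stalled E. coli RNA polymerase. Titrations with SNAP-549-labelled MS2 coat protein, doubling from 0.7 or 1.5 nM to 3 µM, were done with no input, with 200 uM small-molecule ligand, or with an oligonucleotide input. Apparent KD is the median per design over clusters, from curve fits of normalised cluster fluorescence.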

[1] = input ligand: microRNA oligo, concentration not stated
[2] = Eterna round: R95, input ligand: microRNA oligo, concentration not stated
[3] = Eterna round: R95, input ligand: FMN 200 uM
[4] = Eterna round: R95, input ligand: none

Sequence: AGAUCUAGGACAGGAUAUAUAGAUGGCUUCAUCGAAGAUGAAGCCAUCACAUGAGGAUCACCCAUGUAGAAGGGUCCUAGAUCA [Omei Exc(NG) 2Av6] (Eterna round: R96, puzzle: Exclusion NG 2)
- apparent KD of MS2 coat protein (input ligand: FMN 200 uM): 0.0109 µM
- apparent KD of MS2 coat protein [1]: 0.00874 µM
- apparent KD of MS2 coat protein (input ligand: none): 0.0103 µM

Sequence: UACAUGAGGAUCACCCAUGUUUUGUCGUGUAUGGUAUUUAUCUAGGAUAUCAAUGUAUUAAUUUAUGAGAAGGAGAAUAUUAAU [JMF's solution 44] (Eterna round: R96, puzzle: Exclusion NG 3)
- apparent KD of MS2 coat protein (input ligand: FMN 200 uM): 0.042 µM
- apparent KD of MS2 coat protein [1]: 0.0273 µM
- apparent KD of MS2 coat protein (input ligand: none): 0.0432 µM

Sequence: UGAUCAGACCGAGGAUAUACAUGUAGGACGCACGUGAGUGCGUCCAGUACAUGAGGAUCACCCAUGUAGAAGGCGGUCUGAUCU [JL ENG2 1.95] (Eterna round: R96, puzzle: Exclusion NG 2)
- apparent KD of MS2 coat protein (input ligand: FMN 200 uM): 0.309 µM
- apparent KD of MS2 coat protein [1]: 0.0782 µM
- apparent KD of MS2 coat protein (input ligand: none): 0.0761 µM

Sequence: AGAUCUAGGACAGGAUAUACUGAUGGCUUCAUCGAAGAUGAAGCCAUCACAUGAGGAUCACCCAUGUAGAAGGGUCCUAGAUCA [Omei Exc(NG) 2Av8] (Eterna round: R96, puzzle: Exclusion NG 2)
- apparent KD of MS2 coat protein [1]: 0.00955 µM

Sequence: AGUCGGCGAGGAUAUACAUGAGGAUCACCCAUGUGUGAUCCUAGACCUGUAGGUCCAUGUAGAAGGCGCUGACA [Exclusion 3 - Was a mod at one point] (puzzle: Exclusion 3)
- apparent KD of MS2 coat protein [2]: 0.0188 µM

Sequence: GGUCUGCGAGGAUAUACAUGAGGAUCACCCAUGUGAGUGAAACUAGUGAGGUCGAUUGGUAGAAGGCGCGGACG [Mat - Exclusion 3 - Mod of JL D82] (puzzle: Exclusion 3)
- apparent KD of MS2 coat protein [3]: 0.0177 µM
- apparent KD of MS2 coat protein [2]: 0.063 µM
- apparent KD of MS2 coat protein [4]: 0.0175 µM

Sequence: GGCCGUAAUAAGGAUAUCACUAGCGAUAGCUAGUGAGAAGGUAUUACAUGAGGAUCACCCAUGUGAUCAGGCCA [E6/3-B3] (Eterna round: R97, puzzle: Exclusion 6)
- apparent KD of MS2 coat protein (input ligand: FMN 200 uM): 1.18 µM
- apparent KD of MS2 coat protein (input ligand: none): 0.176 µM

Sequence: ACUUUUAGUGGUCAAACUCACAUGAGGAUCACCCAUGUUUACAGGCUUAGGUGCUUGUCUUAUACUAAGGUUUACCG [Eternabot (L1) Solution 44] (Eterna round: R97, puzzle: Sensor, turn-off variant 1)
- apparent KD of MS2 coat protein (input ligand: FMN 200 uM): 0.0969 µM
- apparent KD of MS2 coat protein (input ligand: none): 0.122 µM

Sequence: UGUUUACAUGAGGAUCACCCAUGUCAGGAUAUGAUAUAUAUAUGGAAACAUAUAUAUAUCAGAAGGGACUAGUG [Jieuxxlusion 1 - Jieux - Exclusion 1] (Eterna round: R97, puzzle: Exclusion 1)
- apparent KD of MS2 coat protein (input ligand: FMN 200 uM): 0.156 µM
- apparent KD of MS2 coat protein (input ligand: none): 0.0877 µM

Sequence: CAUAGUCUAGGAUAUUCACCUCUAUACAUGAGGAUCACCCAUGUCAAUGGCAGAUGACCAGAAGAAGGAGAAGUGG [Eternabot (L1) Solution 16] (Eterna round: R97, puzzle: Exclusion 5)
- apparent KD of MS2 coat protein (input ligand: FMN 200 uM): 0.0902 µM
- apparent KD of MS2 coat protein (input ligand: none): 0.0848 µM

Sequence: AAACCCUGAGGAUAUACAUAACAACAAAGCCUCACGUGCCAACAUGAGGAUCACCCAUGUAGAAGGCAGGCCAA [Isananra] (puzzle: Exclusion 2)
- apparent KD of MS2 coat protein [2]: 0.0126 µM

Sequence: GUACUAGAAUAUCAGUCGCACAUGAGGAUCACCCAUGUCAUGGGUAGAUAAAUAAAUAAAGAUACUGCUCGUCUUAU [Cac sensor turnoff var1 sub1] (Eterna round: R97, puzzle: Sensor, turn-off variant 1)
- apparent KD of MS2 coat protein (input ligand: FMN 200 uM): 0.277 µM
- apparent KD of MS2 coat protein (input ligand: none): 0.399 µM

Sequence: GUUUUCAGACGGAGAUCCUACAUGAGGAUCACCCAUGUCUCACAAGCUUUUUGCUCGUCUUAUUCUCCUCUGUUCUC [Elimod 41 - Jieux - Sensor, turn-off variant 1] (Eterna round: R97, puzzle: Sensor, turn-off variant 1)
- apparent KD of MS2 coat protein (input ligand: FMN 200 uM): 0.0238 µM
- apparent KD of MS2 coat protein (input ligand: none): 0.0261 µM

Sequence: GUGGCACUAGUGAGGAUAUGGAAAUUGACAGAUAUCCAGAAGGCACAUGAGGAUCACCCAUGUCGAAUCCAGCA [Eternabot (L1) Solution 81] (Eterna round: R97, puzzle: Brourd's mod of Exclusion 4)
- apparent KD of MS2 coat protein (input ligand: FMN 200 uM): 0.0369 µM
- apparent KD of MS2 coat protein (input ligand: none): 0.0228 µM

Sequence: GCACCGUCAGGAUAUACAUGAGGAUCACCCAUGUGACCACCACUGUUCAUGACGCAUUGUAGAAGGGACGGAAA [Eternabot (L2) Solution 47] (Eterna round: R97, puzzle: Exclusion 3)
- apparent KD of MS2 coat protein (input ligand: FMN 200 uM): 0.25 µM
- apparent KD of MS2 coat protein (input ligand: none): 0.0547 µM

Sequence: ACUUAUAGAGGAUAUACAGAAUAUUACAUGAGGAUCACCCAUGUUCUUCAAUGUAUAUUUGUAGAAGGCUAAGGAA [EX-5 Malc#7] (puzzle: Exclusion 5)
- apparent KD of MS2 coat protein [3]: 0.192 µM
- apparent KD of MS2 coat protein [2]: 0.0456 µM
- apparent KD of MS2 coat protein [4]: 0.0406 µM

Sequence: GCAGGUUAAGUCAGGAUAUACCUAUGGAUACAUAGGUAGAAGGGACAUGAGGAUCACCCAUGUGGCUCACCUGC [Fiskers BMX 4 - 60] (puzzle: Brourd's mod of Exclusion 4)
- apparent KD of MS2 coat protein [2]: 0.0216 µM

Sequence: UCAAGAAUAGGAUAUACAACAUGCCCGCUUCUUUGCAUCGCACAUGAGGAUCACCCAUGUAGAAGGGUUCUCUA [Exclusion-2-#16] (Eterna round: R97, puzzle: Exclusion 2)
- apparent KD of MS2 coat protein (input ligand: FMN 200 uM): 0.103 µM
- apparent KD of MS2 coat protein (input ligand: none): 0.151 µM

Sequence: AGAGAAUACUCAGGAUAUGUGAAUAGAUAGAGAACAGAAGGGAGACAUGAGGAUCACCCAUGUGAAGUCUUGAGGCUGCAUGGA [Prohibition 23 - Jieux - Exclusion NG 1] (Eterna round: R96, puzzle: Exclusion NG 1)
- apparent KD of MS2 coat protein (input ligand: FMN 200 uM): 0.403 µM
- apparent KD of MS2 coat protein [1]: 0.408 µM
- apparent KD of MS2 coat protein (input ligand: none): 0.337 µM

Sequence: AGUUGGGAAGGAUAUACAUGAGGAUCACCCAUGUGAAAUUAUAGUGAGGAAAUGAAAAGUAGAAGGUCCUGACA [Mod of Mat 4 - Jieux - Exclusion 3] (Eterna round: R97, puzzle: Exclusion 3)
- apparent KD of MS2 coat protein (input ligand: FMN 200 uM): 0.147 µM
- apparent KD of MS2 coat protein (input ligand: none): 0.0358 µM

Sequence: GAUUCACAUGACUGUCUAUACAUGAGGAUCACCCAUGUUUGUUUUUAUUUUUUUUUGCUUUUUAGUCGUCUUAUUAU [1 hard RNA] (Eterna round: R97, puzzle: Sensor, turn-off variant 1)
- apparent KD of MS2 coat protein (input ligand: FMN 200 uM): 0.0371 µM
- apparent KD of MS2 coat protein (input ligand: none): 0.0352 µM

Sequence: GGACGGUUAGUCAGGAUAUGCUCUACCUCGGUAGAGCAGAAGGGACAUGAGGAUCACCCAUGUGAAAACUGUUC [Omei Ex4B B37] (Eterna round: R97, puzzle: Brourd's mod of Exclusion 4)
- apparent KD of MS2 coat protein (input ligand: FMN 200 uM): 0.0302 µM
- apparent KD of MS2 coat protein (input ligand: none): 0.0249 µM

Sequence: UUAUUAUAUGUAGGAUAUGCAUAUUAUUAUUAUGCAGAAGGACAUGAGGAUCACCCAUGUAUAUUAUUAUUAUAUGUUAUAUAU [Title] (Eterna round: R96, puzzle: Exclusion NG 1)
- apparent KD of MS2 coat protein [1]: 0.0209 µM

Sequence: AGGUCCUUCUGGAGACAUGAGGAUCACCCAUGUCGGGUCAGCGAGGAUAUCGGUUAAUAAUGUGACGAGAAGGCGCGGACCGAU [Ex NG3 #56] (Eterna round: R96, puzzle: Exclusion NG 3)
- apparent KD of MS2 coat protein (input ligand: FMN 200 uM): 0.104 µM
- apparent KD of MS2 coat protein [1]: 0.0195 µM
- apparent KD of MS2 coat protein (input ligand: none): 0.0249 µM

Sequence: GGUGGACAUGAGGAUCACCCAUGUGAGGAUAUCGGCCGGUUCGUGGUGGCUGGCGUCUCGAGAAGGCACAUAGU [Exclusion 1 V69] (puzzle: Exclusion 1)
- apparent KD of MS2 coat protein [2]: 0.114 µM
